The source of these data is patent US20220064310A1 (DEVELOPMENT CENTER FOR BIOTECHNOLOGY, published 2022).

Test [1] addresses T1, CSF-1R-ECD-human Fc (in house) (human, UniProt P07333 20-512).
T1 construct: In-house fusion; also called CSF-1R-ECD-hFc; CSF1R-ECD-hFc; not shown: human Fc
The experiment in a line: ELISA, coated CSF1R-ECD-hFc 1 ug/ml, anti-kappa HRP, one site specific binding fit (GraphPad Prism). The procedure:
(§1) To know the binding affinity differences among individual antibodies, ELISA method was used. ELISA plate was coated with 1 μg/ml of CSF1R-ECD-hFc, then add assay antibodies diluted from 50 nM to 1×10⁻⁵ nM (5-10× fold dilution). Assay was measured by adding anti-kappa HRP secondary antibody (1:5000 dilution). Binding curve and KD were determined with GraphPad Prism software using one site-specific binding for nonlinear fit methods. […] This loss of avidity was recovered by back mutations, as evidenced by humanized antibodies B1-Hu, B2-Hu, B1-B1, and B2-B1 clones. (See FIG. 11 and FIG. 12).

The target in test [2] is T1, CSF-1R-ECD-human Fc (in house). The test can be described thus: ELISA, CSF1R-ECD-hFc coated at 1 ug/ml, anti-kappa HRP, one site-specific binding fit. On the procedure:
as §1

For test [3] the target is unchanged. The experiment in a line: ELISA, coated CSF1R-ECD-hFc 1 ug/ml, anti-kappa HRP, OD450. The procedure:
as §1
In general terms: In an ELISA, binding on a coated surface is turned into a signal by an enzyme label.

The target is the same in test [4]. The test can be described thus: ELISA, CSF1R-ECD-hFc coated at 1 ug/ml, anti-kappa HRP. The procedure: as §1

Numbering of substitutions follows the chain as printed.

T1 sequence (P07333 20-512): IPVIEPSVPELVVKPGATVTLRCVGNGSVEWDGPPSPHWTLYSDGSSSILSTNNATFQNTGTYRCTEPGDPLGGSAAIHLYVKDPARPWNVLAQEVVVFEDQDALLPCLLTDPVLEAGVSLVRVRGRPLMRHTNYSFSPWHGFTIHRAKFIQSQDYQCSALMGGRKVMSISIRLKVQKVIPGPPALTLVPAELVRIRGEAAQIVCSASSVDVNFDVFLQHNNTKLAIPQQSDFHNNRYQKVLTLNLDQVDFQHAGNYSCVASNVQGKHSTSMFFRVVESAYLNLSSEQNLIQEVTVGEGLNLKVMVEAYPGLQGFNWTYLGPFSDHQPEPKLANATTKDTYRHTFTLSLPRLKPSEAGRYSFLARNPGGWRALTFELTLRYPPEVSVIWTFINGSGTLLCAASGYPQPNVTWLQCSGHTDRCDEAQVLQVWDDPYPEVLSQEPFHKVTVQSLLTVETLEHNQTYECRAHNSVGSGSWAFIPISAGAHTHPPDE

B1: M-M(IgG4) (antibody, V domains shown)
VH: EVQLQQSGPELEKPGASVKISCKASGYSFTGYNMNWVKQSNGKSLEWIGNIDPYYGGTTYNQKFKGKATLTVDKSSSTAYMQLKSLTSEDSAVYYCARRGDYSGSSYWYFDVWGAGTTVTVSS
VL: DIQMTQSSSYLSVSLGGRVTITCKASDHINNWLAWYQQKPGNAPRLLISGATSLETGVPSRFSGSGSGKDYTLSITSLQTEDVVTYYCQQYWSTPFTFGSGTKLEIK
notes: an IgG1 and an IgG4 form
B1 had a Bmax in test [1] of 3.2.

B2: AB21 M-M (mouse heavy chain variable region with mouse light chain variable region, recombinant) (antibody, V domains shown)
VH: B1 VH
VL: B1 VL
Turning to B2, in test [2], the Kd – broadly, the free concentration of one partner at which half of the binding sites on the other are occupied at equilibrium, for simple one-to-one binding – was determined as 93.6 pM. This counts as picomolar.

B3: B1-Hu(IgG4) (antibody, V domains shown)
VH: EVQLVQSGAEVKKPGATVKISCKVSGYSFTGYNMNWVQQAPGKGLEWMGNIDPYYGGTTYNQKFKGKATLTVDKSTSTAYMELSSLRSEDTAVYYCARRGDYSGSSYWYFDVWGQGTLVTVSS
VL: DIQMTQSPSSLSASVGDRVTITCKASDHINNWLAWYQQKPGKAPKLLLYGATSLETGVPSRFSGSGSGTDYTLTISSLQPEDFATYYCQQYWSTPFTFGQGTKVEIK
notes: an IgG1 and an IgG4 form
For the molecule B3, the Bmax in test [1] is 3.19.

B4: humanized AB21 B1-Hu (AB21 VHB1 with Hu AB21 VL) (antibody, V domains shown)
VH: B3 VH
VL: B3 VL
notes: Human IgG from vector pTCAE8-AB21 in FreeStyle 293 cells, kappa light chain; also called heavy chain B1 combined with light chain Hu
In turn, B4 showed a Kd in test [2] of 95.8 pM.

B5: B1-Hu(IgG1) (antibody, V domains shown)
VH: B3 VH
VL: B3 VL
notes: an IgG1 and an IgG4 form
Turning to B5, the EC50 (read off the curve) (as a rule, the concentration at which the effect is half-maximal) in test [3] is roughly 40 pM.

B6: humanized AB21 B1-B1 (AB21 VHB1 with AB21 VLB1) (antibody, V domains shown)
VH: B3 VH
VL: B3 VL with V15L, Y49S
notes: Human IgG from vector pTCAE8-AB21 in FreeStyle 293 cells, kappa light chain; also called heavy chain B1 combined with light chain B1
B6 came in with a Kd in test [2] of 55.8 pM.

B7: humanized AB21 Hu-Hu (Hu AB21 VH with Hu AB21 VL), the initial humanized antibody (antibody, V domains shown)
VH: B3 VH with K67R, A68V, L70I, V72A, K74T, S77D, R98T
VL: B3 VL
notes: Human IgG from vector pTCAE8-AB21 in FreeStyle 293 cells, kappa light chain (anti-kappa HRP detection); also called heavy chain Hu combined light chain Hu
Consider B7, for which the Kd in test [2] was 83000 pM. Moreover, the “fold lower affinity than the original mouse antibody (M-M)” value in test [4] was roughly 1000 fold.

B8: humanized AB21 B2-Hu (Hu AB21 VHB2 with Hu AB21 VL) (antibody, V domains shown)
VH: B3 VH with T17S, Q38K, M48I
VL: B3 VL
notes: Human IgG from vector pTCAE8-AB21 in FreeStyle 293 cells, kappa light chain
For the molecule B8, in test [1], the Bmax came to 3.17. Further, the “EC50 (read off the curve)” value in test [3] was roughly 80 pM.
